Measurements from the supplement of paper PMC10567573.

B1: SPSB1 (parent)
chain: DMRDPTYRPLKQELQGLDYCKPTR

Variants of: B1
Test: protein stability index of a GFP-peptide fusion (GPS, HEK-293T) (PSI 1-6); higher = more stable
Conditions: c terminus: a fixed tail appended
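Further: lentivirally expressed fusions sorted by FACS into six bins by GFP to DsRed ratio, PSI derived from sequencing read proportions per bin multiplied by bin number.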

Row | Variant | protein stability index
1 | DMRDPTYRPLKQELQGLDYCKPTQ [R24Q] | 3.18
2 | DMRDPTYRPLKQELQGLDYCKPTD [R24D] | 4.59
3 | DMRDPTYRPLKQELQGLDYCKPTV [R24V] | 1.92
4 | DMRDPTYRPLKQELQGLDYCKPTH [R24H] | 2.98
5 | DMRDPTYRPLKQELQGLDYCKPTA [R24A] | 2.32
6 | DMRDPTYRPLKQELQGLDYCKPTL [R24L] | 1.6
7 | DMRDPTYRPLKQELQGLDYCKPTW [R24W] | 1.93
8 | DMRDPTYRPLKQELQGLDYCKPTT [R24T] | 3.27
9 | DMRDPTYRPLKQELQGLDYCKPTY [R24Y] | 2.21
10 | DMRDPTYRPLKQELQGLDYCKPTC [R24C] | 1.93
11 | DMRDPTYRPLKQELQGLDYCKPTS [R24S] | 3.68
12 | DMRDPTYRPLKQELQGLDYCKPTP [R24P] | 4.29
13 | DMRDPTYRPLKQELQGLDYCKPTE [R24E] | 4.56
14 | DMRDPTYRPLKQELQGLDYCKPTN [R24N] | 4.03
15 | DMRDPTYRPLKQELQGLDYCKPTK [R24K] | 3.09
16 | DMRDPTYRPLKQELQGLDYCKPTM [R24M] | 1.64
17 | DMRDPTYRPLKQELQGLDYCKPTF [R24F] | 2.41
18 | DMRDPTYRPLKQELQGLDYCKPTG [R24G] | 3.85
19 | DMRDPTYRPLKQELQGLDYCQPTR [K21Q] | 2.64
20 | DMRDPTYRPLKQELQGLDYCYPTR [K21Y] | 2.18
21 | DMRDPTYRPLKQELQGLDYCSPTR [K21S] | 2.92
22 | DMRDPTYRPLKQELQGLDYCNPTR [K21N] | 1.78

Row | Variant | protein stability index
23 | DMRDPTYRPLKQELQGLDYCTPTR [K21T] | 2.63
24 | DMRDPTYRPLKQELQGLDYCPPTR [K21P] | 3.95
25 | DMRDPTYRPLKQELQGLDYCVPTR [K21V] | 3.65
26 | DMRDPTYRPLKQELQGLDYCRPTR [K21R] | 3.5
27 | DMRDPTYRPLKQELQGLDYCWPTR [K21W] | 1.98
28 | DMRDPTYRPLKQELQGLDYCKLTR [P22L] | 3.18
29 | DMRDPTYRPLKQELQGLDYCKRTR [P22R] | 4.4
30 | DMRDPTYRPLKQELQGLDYCKFTR [P22F] | 2.85
31 | DMRDPTYRPLKQELQGLDYCKDTR [P22D] | 4.68
32 | DMRDPTYRPLKQELQGLDYCKKTR [P22K] | 4.35
33 | DMRDPTYRPLKQELQGLDYCKHTR [P22H] | 4.15
34 | DMRDPTYRPLKQELQGLDYCKITR [P22I] | 2.29
35 | DMRDPTYRPLKQELQGLDYCKMTR [P22M] | 3.07
36 | DMRDPTYRPLKQELQGLDYCKNTR [P22N] | 3.92
37 | DMRDPTYRPLKQELQGLDYCKSTR [P22S] | 3.68
38 | DMRDPTYRPLKQELQGLDYCKCTR [P22C] | 3.71
39 | DMRDPTYRPLKQELQGLDYCKTTR [P22T] | 3.07
40 | DMRDPTYRPLKQELQGLDYCKQTR [P22Q] | 4.26
41 | DMRDPTYRPLKQELQGLDYCKYTR [P22Y] | 3.13
42 | DMRDPTYRPLKQELQGLDYCKWTR [P22W] | 2.84
43 | DMRDPTYRPLKQELQGLDYCKATR [P22A] | 3.44
44 | DMRDPTYRPLKQELQGLDYCKETR [P22E] | 4.79

Row | Variant | protein stability index
45 | DMRDPTYRPLKQELQGLDYCKGTR [P22G] | 4.1
46 | DMRDPTYRPLKQELQGLDYCKVTR [P22V] | 2.9
47 | DMRDPTYRPLKQELQGLDYCKPER [T23E] | 3.92
48 | DMRDPTYRPLKQELQGLDYCKPCR [T23C] | 3.3
49 | DMRDPTYRPLKQELQGLDYCKPHR [T23H] | 3.19
50 | DMRDPTYRPLKQELQGLDYCKPDR [T23D] | 2.87
51 | DMRDPTYRPLKQELQGLDYCKPYR [T23Y] | 2.5
52 | DMRDPTYRPLKQELQGLDYCKPQR [T23Q] | 3.47
53 | DMRDPTYRPLKQELQGLDYCKPRR [T23R] | 4.3
54 | DMRDPTYRPLKQELQGLDYCKPFR [T23F] | 2.09
55 | DMRDPTYRPLKQELQGLDYCKPSR [T23S] | 2.92
56 | DMRDPTYRPLKQELQGLDYCKPLR [T23L] | 2.99
57 | DMRDPTYRPLKQELQGLDYCKPKR [T23K] | 3.9
58 | DMRDPTYRPLKQELQGLDYCKPMR [T23M] | 2.87
59 | DMRDPTYRPLKQELQGLDYCKPGR [T23G] | 4.26
60 | DMRDPTYRPLKQELQGLDYCKPWR [T23W] | 1.76
61 | DMRDPTYRPLKQELQGLDYCKPVR [T23V] | 3.29
62 | DMRDPTYRPLKQELQGLDYCKPIR [T23I] | 2.52
63 | DMRDPTYRPLKQELQGLDYCKPPR [T23P] | 4.33
64 | DMRDPTYRPLKQELQGLDYCKPAR [T23A] | 3.18
